Measured values published in patent publication US20250115663A1 (CELLDEX THERAPEUTICS, published 2025).

T1: kappa-sCD40(1-94)-Flag mutant fragment D (multiple mutations of residues 33-36) (human, UniProt P25942 21-114)
T1 construct: The text says only multiple mutations of residues 33-36 (human to mouse differences); that mutant D carries exactly these is inferred; also called D (33-36); not shown: N-terminal human kappa light chain; C-terminal Flag tag
T1 chain: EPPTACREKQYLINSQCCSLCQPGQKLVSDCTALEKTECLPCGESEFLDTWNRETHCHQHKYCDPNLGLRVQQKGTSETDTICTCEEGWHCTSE

T2: kappa-sCD40(1-94)-Flag point mutant P3S (human, UniProt P25942 21-114)
T2 construct: not shown: N-terminal human kappa light chain; C-terminal Flag tag
T2 chain: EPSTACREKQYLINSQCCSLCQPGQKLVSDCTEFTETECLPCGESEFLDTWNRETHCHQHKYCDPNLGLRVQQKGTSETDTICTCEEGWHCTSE

T3: kappa-sCD40(1-94)-Flag point mutant T4V (human, UniProt P25942 21-114)
T3 construct: not shown: N-terminal human kappa light chain; C-terminal Flag tag
T3 chain: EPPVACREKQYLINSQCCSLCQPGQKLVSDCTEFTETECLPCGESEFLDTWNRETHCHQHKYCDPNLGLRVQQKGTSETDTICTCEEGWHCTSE

T4: kappa-sCD40(1-94)-Flag point mutant A5T (human, UniProt P25942 21-114)
T4 construct: not shown: N-terminal human kappa light chain; C-terminal Flag tag
T4 chain: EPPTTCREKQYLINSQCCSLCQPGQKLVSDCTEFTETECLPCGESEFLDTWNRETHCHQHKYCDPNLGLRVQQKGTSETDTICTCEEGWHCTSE

T5: kappa-sCD40(1-94)-Flag point mutant E33A (human, UniProt P25942 21-114)
T5 construct: not shown: N-terminal human kappa light chain; C-terminal Flag tag
T5 chain: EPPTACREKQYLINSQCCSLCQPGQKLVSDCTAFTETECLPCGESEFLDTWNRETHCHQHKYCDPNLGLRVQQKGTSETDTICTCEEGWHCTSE

T6: kappa-sCD40(1-94)-Flag point mutant F34L (human, UniProt P25942 21-114)
T6 construct: not shown: N-terminal human kappa light chain; C-terminal Flag tag
T6 chain: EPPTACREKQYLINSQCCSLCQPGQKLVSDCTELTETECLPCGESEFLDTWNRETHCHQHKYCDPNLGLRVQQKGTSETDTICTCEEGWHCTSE

T7: kappa-sCD40(1-94)-Flag point mutant T35E (human, UniProt P25942 21-114)
T7 construct: not shown: N-terminal human kappa light chain; C-terminal Flag tag
T7 chain: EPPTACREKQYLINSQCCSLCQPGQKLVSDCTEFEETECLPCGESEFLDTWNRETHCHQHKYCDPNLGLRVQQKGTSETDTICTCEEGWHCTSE

T8: kappa-sCD40(1-94)-Flag point mutant E36K (human, UniProt P25942 21-114)
T8 construct: not shown: N-terminal human kappa light chain; C-terminal Flag tag
T8 chain: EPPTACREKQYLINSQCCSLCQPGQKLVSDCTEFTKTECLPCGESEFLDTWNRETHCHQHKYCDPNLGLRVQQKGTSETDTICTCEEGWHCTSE


What was measured:
[1] = target: T9, kappa-sCD40-Flag fusion protein, full length ECD amino acid residues 1-173 (human, UniProt P25942 21-193); experiment: ELISA, kappa-sCD40-Flag fusion captured on anti-Flag, anti-human IgG Fc-HRP
T9 construct: also called full length sCD40; not shown: N-terminal human kappa light chain; C-terminal Flag tag

[2] = target: T10, kappa-sCD40-Flag fusion protein, fragment amino acids 1-94 (human, UniProt P25942 21-114); experiment: as above
T10 construct: also called sCD40aa 1-94; not shown: N-terminal human kappa light chain; C-terminal Flag tag

[3] = target: T11, kappa-sCD40-Flag fusion protein, fragment amino acids 36-130 (human, UniProt P25942 56-150); experiment: as above
T11 construct: not shown: N-terminal human kappa light chain; C-terminal Flag tag
T11 sequence (P25942 56-150): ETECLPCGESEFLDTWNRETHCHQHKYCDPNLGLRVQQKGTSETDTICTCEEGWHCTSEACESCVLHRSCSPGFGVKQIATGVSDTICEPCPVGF

[4] = target: T12, kappa-sCD40-Flag fusion protein, fragment amino acids 84-173 (human, UniProt P25942 104-193); experiment: as above
T12 construct: not shown: N-terminal human kappa light chain; C-terminal Flag tag
T12 sequence (P25942 104-193): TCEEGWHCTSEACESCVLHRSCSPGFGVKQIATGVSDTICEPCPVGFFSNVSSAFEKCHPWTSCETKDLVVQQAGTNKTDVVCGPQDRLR

[5] = target: T13, kappa-sCD40(1-94)-Flag mutant fragment A (multiple mutations of residues 1-5) (human, UniProt P25942 26-114); experiment: as above
T13 construct: The text says only multiple mutations of residues 1-5 (human to mouse differences); that mutant A carries exactly these is inferred; also called A (1-5); not shown: N-terminal human kappa light chain; C-terminal Flag tag

[6] = target: T1, kappa-sCD40(1-94)-Flag mutant fragment …; experiment: as above
[7] = target: T14, kappa-sCD40(1-94)-Flag point mutant E1G (human, UniProt P25942 22-114); experiment: as above
T14 construct: not shown: N-terminal human kappa light chain; C-terminal Flag tag

[8] = target: T2, kappa-sCD40(1-94)-Flag point mutant P3S; experiment: as above
[9] = target: T3, kappa-sCD40(1-94)-Flag point mutant T4V; experiment: as above
[10] = target: T4, kappa-sCD40(1-94)-Flag point mutant A5T; experiment: as above
[11] = target: T5, kappa-sCD40(1-94)-Flag point mutant E33A; experiment: as above
[12] = target: T6, kappa-sCD40(1-94)-Flag point mutant F34L; experiment: as above
[13] = target: T7, kappa-sCD40(1-94)-Flag point mutant T35E; experiment: as above
[14] = target: T8, kappa-sCD40(1-94)-Flag point mutant E36K; experiment: as above
[15] = target: T15, recombinant human CD40-Fc (human, UniProt P25942 21-193); experiment: ELISA on coated recombinant human CD40-Fc, detection anti-human IgG F(ab')2-HRP, OD 450-650
T15 construct: also called soluble recombinant human CD40/Fc chimera from R&D Systems; not shown: The antibody Fc domain of the R&D Systems chimera and any linker to it
T15 sequence (P25942 21-193 limits assumed, form in doubt): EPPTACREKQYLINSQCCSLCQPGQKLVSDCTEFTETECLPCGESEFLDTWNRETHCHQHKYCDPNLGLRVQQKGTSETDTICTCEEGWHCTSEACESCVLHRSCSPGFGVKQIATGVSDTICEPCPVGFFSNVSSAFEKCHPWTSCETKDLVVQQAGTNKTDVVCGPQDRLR
Method: Microtiter plates were coated with recombinant human CD40-Fc in PBS, and then blocked with 5% bovine serum albumin in PBS. […] The plates were washed with PBS/Tween and then incubated with a goat-anti-human IgG F(ab′)2-specific polyclonal reagent conjugated to horseradish peroxidase at 37° C. After washing, the plates were developed with HRP substrate, and analyzed at OD 450-650 using a microtiter plate reader.

OD [1] [OD 450-650]	OD [2] [OD 450-650]	OD [3] [OD 450-650]	OD [4] [OD 450-650]	OD [5] [OD 450-650]	OD [6] [OD 450-650]	OD [7] [OD 450-650]	OD [8] [OD 450-650]	OD [9] [OD 450-650]	OD [10] [OD 450-650]	OD [11] [OD 450-650]	OD [12] [OD 450-650]	OD [13] [OD 450-650]	OD [14] [OD 450-650]	EC50 (read off the curve) [15] [nM]	Binder
2.36	2.15	0.029	0.024	0.25	0.233	2.01	2.01	2.21	1.51	1.7	1.84	2.1	1.69	~0.4	anti-CD40 human monoclonal antibody 3C3 (antibody, human IgG2, kappa, V domains shown, Human IgG2, C-terminal lysine removed; also called anti-CD40 mAb 3C3; CD40 antibody 3C3) VH: QVQLVESGGGVVQPGRSLRLSCAGSGFIFSRYGMYWVRQAPGKGLEWVAVIWYDGSYKYYADSVKGRFTISRDNSKNTLYLQMNSLRAEDTAVYYCARESPWYYFDYWGQGTLVTVSS VL: DIQMTQSPSSLSASVGDRVTITCRASQGISNYLAWYQQKPGKVPKLLIYAASTLQSGVPSRFSGSGSGTDFTLTISSLQPEDVATYYCQKYKSAPFTFGPGTKVDIKR
2.21	2.17	0.048	0.038	2.14	0.042	2.08	2.19	2.21	2.2	0.074	1.19	2.13	1.93	~0.4	anti-CD40 human monoclonal antibody 3G5 (antibody, human IgG2, V domains shown, Human IgG2) VH: QVQLVESGGGVVQPGKSLRLSCAASGFTFSSNGIHWVRQAPGKGLEWVAVIWSDGSNKFYADSVKGRFTISRDNSKNTLYLQMNSLRAEDTAVYYCARASGSGSYYNFFDYWGQGTLVTVSS VL: EIVMTQSPATLSVSPGERATLSCRASQSVRSNLAWYQQKPGQAPRLLIYGASTRATGIPARFSGSGSGTEFTLTINSLQSEDFAVYYCQQHNKWITFGQGTRLEIK
